Experimental data: patent US11653679B2, “High-purity steviol glycosides” (PureCircle Sdn Bhd, priority 2014, dated 2023)

Columns and labels:
Format in all cases: biochemical
[1] = Directed evolution of UGT76G1, Rebaudioside D to Rebaudioside M, round 1 (Example 26); details: 100 μL fresh lysate, 0.5 mM Rebaudioside D, 30° C., pH 7.2
Outline: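 Conversion and initial rate were determined by HPLC with CAD detection on samples taken at 2, 4, 7 and 24 h. Reactions ran at 30 °C in 50 mM phosphate buffer pH 7.2 with lysate, Rebaudioside D (0.5 mM), UDP-glucose (2.5 mM) and MgCl2 (3 mM).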

[2] = Catalytic test Rebaudioside A to Rebaudioside D with in-vitro expressed UDP-glucosyltransferases (Examples 20, 21), HPLC; details: for Steviol glycoside conversion in reaction mixture, Reb A / Steviol glycoside conversion in reaction mixture, Reb D: 0.5 mM Rebaudioside A, 30° C., HPLC; for Conversion RebA to RebD: in-vitro expressed enzyme
Procedure: The prepared expression medium mix was added to the plasmid solution and the solution was allowed to incubate at 30° C. for 3 hours while mixing the mixture every 45 minutes. 5 μL of the mixture was frozen whereas the remainder was used for the catalytic test for the conversion of Rebaudioside A to Rebaudioside D.
(§1) 430 μL of a reaction mixture containing 0.5 mM Rebaudioside A, 3 mM MgCl2, 50 mM phosphate buffer (pH7.2) and 2.5 mM UDP-glucose was added to a 1.5 mL sterile microtube. 52 μl of the enzyme expression medium was added and the resulting mixture was allowed to react at 30° C. for 24 hours. 125 μL samples were taken after 2 hours, 16 hours and 24 hours and added to a 115 μL of 60% methanol and 10 μL of 2 N H2SO4. The quenched sample was centrifuged at 18,000 g for 2 minutes at RT. 200 μL was transferred to an HPLC vial and analyzed.
The HPLC assay was performed as follows:
as §1, with “μL” for “μl”, “to” for “to an”
(§2) The HPLC assay was performed as described in EXAMPLE 20.

[3] = Activity of in-vivo produced enzymes for transformation of Rebaudioside A (Example 22); details: for Conversion after 45 hrs.: 0.5 mM, in-vivo produced enzyme lysate; for Reb D selectivity: after 45 hrs.
Procedure: Activity tests were performed at 5 mL scale with 1,000 μL of thawed lysate for the transformation of Rebaudioside A using 0.5 mM of substrate, 2.5 mM of UDP-Glucose and 3 mM MgCl2 in 50 mM Sodium Phosphate buffer at pH 7.2. Samples were taken and analyzed by HPLC.
as §2

Reb D selectivity [3] [%] | Molecule | conversion Reb D to Reb M after 24 h [1] [%] | initial rate [1] [Reb M area/min] | Steviol glycoside conversion in reaction mixture, Reb A [2] [% area] | Steviol glycoside conversion in reaction mixture, Reb D [2] [% area] | Conversion RebA to RebD [2] | Conversion after 45 hrs. [3] [%]
 | UGT76G1var93: UGT76G1 variant, mutations I43V_Q266E_S375M_S389E_V394I (protein, UniProt Q6VAB4 1-458, looked up, variant I43V Q266E S375M S389E V394I) UDP-glycosyltransferase 76G1: MENKTETTVRRRRRIILFPVPFQGHINPILQLANVLYSKGFSVTIFHTNFNKPKTSNYPHFTFRFILDNDPQDERISNLPTHGPLAGMRIPIINEHGADELRRELELLMLASEEDEEVSCLITDALWYFAQSVADSLNLRRLVLMTSSLFNFHAHVSLPQFDELGYLDPDDKTRLEEQASGFPMLKVKDIKSAYSNWQILKEILGKMIKQTKASSGVIWNSFKELEESELETVIREIPAPSFLIPLPKHLTASSSSLLDHDRTVFEWLDQQPPSSVLYVSFGSTSEVDEKDFLEIARGLVDSKQSFLWVVRPGFVKGSTWVEPLPDGFLGERGRIVKWVPQQEVLAHGAIGAFWTHSGWNSTLESVCEGVPMIFMDFGLDQPLNARYMEDVLKIGVYLENGWERGEIANAIRRVMVDEEGEYIRQNARVLKQKADVSLMKGGSSYESLESLVSYISSL | 1.8 | 4.5E+05 |  |  |  | 
 | UGT76G1var95: UGT76G1 variant, mutations A33G_I295M_K303G_I335V_A385T (protein, UniProt Q6VAB4 1-458, looked up, variant A33G I295M K303G I335V A385T) UDP-glycosyltransferase 76G1: MENKTETTVRRRRRIILFPVPFQGHINPILQLGNVLYSKGFSITIFHTNFNKPKTSNYPHFTFRFILDNDPQDERISNLPTHGPLAGMRIPIINEHGADELRRELELLMLASEEDEEVSCLITDALWYFAQSVADSLNLRRLVLMTSSLFNFHAHVSLPQFDELGYLDPDDKTRLEEQASGFPMLKVKDIKSAYSNWQILKEILGKMIKQTKASSGVIWNSFKELEESELETVIREIPAPSFLIPLPKHLTASSSSLLDHDRTVFQWLDQQPPSSVLYVSFGSTSEVDEKDFLEMARGLVDSGQSFLWVVRPGFVKGSTWVEPLPDGFLGERGRVVKWVPQQEVLAHGAIGAFWTHSGWNSTLESVCEGVPMIFSDFGLDQPLNTRYMSDVLKVGVYLENGWERGEIANAIRRVMVDEEGEYIRQNARVLKQKADVSLMKGGSSYESLESLVSYISSL | −1.3 | −1.7E+05 |  |  |  | 
 | UGT76G1var6: UGT76G1 variant, mutations Q266S_S357N_I373L (protein, UniProt Q6VAB4 1-458, looked up, variant Q266S S357N I373L) UDP-glycosyltransferase 76G1: MENKTETTVRRRRRIILFPVPFQGHINPILQLANVLYSKGFSITIFHTNFNKPKTSNYPHFTFRFILDNDPQDERISNLPTHGPLAGMRIPIINEHGADELRRELELLMLASEEDEEVSCLITDALWYFAQSVADSLNLRRLVLMTSSLFNFHAHVSLPQFDELGYLDPDDKTRLEEQASGFPMLKVKDIKSAYSNWQILKEILGKMIKQTKASSGVIWNSFKELEESELETVIREIPAPSFLIPLPKHLTASSSSLLDHDRTVFSWLDQQPPSSVLYVSFGSTSEVDEKDFLEIARGLVDSKQSFLWVVRPGFVKGSTWVEPLPDGFLGERGRIVKWVPQQEVLAHGAIGAFWTHNGWNSTLESVCEGVPMLFSDFGLDQPLNARYMSDVLKVGVYLENGWERGEIANAIRRVMVDEEGEYIRQNARVLKQKADVSLMKGGSSYESLESLVSYISSL | 0.5 | 1.8E+06 |  |  |  | 
 | UGT76G1var96: UGT76G1 variant, mutations F22L_E229A_L243P_F377C_A385T (protein, UniProt Q6VAB4 1-458, looked up, variant F22L E229A L243P F377C A385T) UDP-glycosyltransferase 76G1: MENKTETTVRRRRRIILFPVPLQGHINPILQLANVLYSKGFSITIFHTNFNKPKTSNYPHFTFRFILDNDPQDERISNLPTHGPLAGMRIPIINEHGADELRRELELLMLASEEDEEVSCLITDALWYFAQSVADSLNLRRLVLMTSSLFNFHAHVSLPQFDELGYLDPDDKTRLEEQASGFPMLKVKDIKSAYSNWQILKEILGKMIKQTKASSGVIWNSFKELEESALETVIREIPAPSFPIPLPKHLTASSSSLLDHDRTVFQWLDQQPPSSVLYVSFGSTSEVDEKDFLEIARGLVDSKQSFLWVVRPGFVKGSTWVEPLPDGFLGERGRIVKWVPQQEVLAHGAIGAFWTHSGWNSTLESVCEGVPMIFSDCGLDQPLNTRYMSDVLKVGVYLENGWERGEIANAIRRVMVDEEGEYIRQNARVLKQKADVSLMKGGSSYESLESLVSYISSL | 1.2 | 2.7E+05 |  |  |  | 
100 | gi187373030_ACD03249.1: UDP-glycosyltransferase [Avena strigosa], SEQ ID NO:4 (protein, listed as Avena strigosa) MAVKDEQQSPLHILLFPFLAPGHLIPIADMAALFASRGVRCTILTTPVNAAIIRSAVDRANDAFRGSDCPAIDISVVPFPDVGLPPGVENGNALTSPADRLKFFQAVAELREPFDRFLADNHPDAVVSDSFFHWSTDAAAEHGVPRLGFLGSSMFAGSCNESTLHNNPLETAADDPDALVSLPGLPHRVELRRSQMMDPKKRPDHWALLESVNAADQKSFGEVFNSFHELEPDYVEHYQTTLGRRTWLVGPVALASKDMAGRGSTSARSPDADSCLRWLDTKQPGSVVYVSFGTLIRFSPAELHELARGLDLSGKNFVWVLGRAGPDSSEWMPQGFADLITPRGDRGFIIRGWAPQMLILNHRALGGFVTHCGWNSTLESVSAGVPMVTWPRFADQFQNEKLIVEVLKVGVSIGAKDYGSGIENHDVIRGEVIAESIGKLMGSSEESDAIQRKAKDLGAEARSAVENGGSSYNDVGRLMDELMARRSSVKVGEDIIPTNDGL |  |  | 99.4 | 0.6 | Active | 0.8
 | EUGT11: putative UDP-glucoronosyl and UDP-glucosyl transferase [Oryza sativa Japonica Group], from WO/2013/022989A2, SEQ ID NO:8 (protein, listed as Oryza sativa) MHVVICPLLAFGHLLPCLDLAQRLACGHRVSFVSTPRNISRLPPVRPSLAPLVSFVALPLPRVEGLPNGAESTHNVPHDRPDMVELHLRAFDGLAAPFSEFLGTACADWVMPTSSAPRQTLSSNIHRNSSRPGTPAPSGRLLCPITPHSNTLERAAEKLVRSSRQNARARSLLAFTSPPLPYRDVFRSLLGLQMGRKQLNIAHETNGRRTGTLPLNLCRWMWKQRRCGKLRPSDVEFNTSRSNEAISPIGASLVNLQSIQSPNPRAVLPIASSGVRAVFIGRARTSTPTPPHAKPARSAAPRAHRPPSSVMDSGYSSSYAAAAGMHVVICPWLAFGHLLPCLDLAQRLASRGHRVSFVSTPRNISRLPPVRPALAPLVAFVALPLPRVEGLPDGAESTNDVPHDRPDMVELHRRAFDGLAAPFSEFLGTACADWVIVDVFHHWAAAAALEHKVPCAMMLLGSAHMIASIADRRLERAETESPAAAGQGRPAAAPTFEVARMKLIRTKGSSGMSLAERFSLTLSRSSLVVGRSCVEFEPETVPLLSTLRGKPITFLGLMPPLHEGRREDGEDATVRWLDAQPAKSVVYVALGSEVPLGVEKVHELALGLELAGTRFLWALRKPTGVSDADLLPAGFEERTRGRGVVATRWVPQMSILAHAAVGAFLTHCGWNSTIEGLMFGHPLIMLPIFGDQGPNARLIEAKNAGLQVARNDGDGSFDREGVAAAIRAVAVEEESSKVFQAKAKKLQEIVADMACHERYIDGFIQQLRSYKD |  |  |  |  | Active | 
100 | gi115454819_NP_001051010.1: Os03g0702500 [Oryza sativa Japonica Group], SEQ ID NO:3 (protein, listed as Oryza sativa) MDDAHSSQSPLHVVIFPWLAFGHLLPCLDLAERLAARGHRVSFVSTPRNLARLPPVRPELAELVDLVALPLPRVDGLPDGAEATSDVPFDKFELHRKAFDGLAAPFSAFLDTACAGGKRPDWVLADLMHHWVALASQERGVPCAMILPCSAAVVASSAPPTESSADQREAIVRSMGTAAPSFEAKRATEEFATEGASGVSIMTRYSLTLQRSKLVAMRSCPELEPGAFTILTRFYGKPVVPFGLLPPRPDGARGVSKNGKHDAIMQWLDAQPAKSVVYVALGSEAPMSADLLRELAHGLDLAGTRFLWAMRKPAGVDADSVLPAGFLGRTGERGLVTTRWAPQVSILAHAAVCAFLTHCGWGSVVEGLQFGHPLIMLPILGDQGPNARILEGRKLGVAVPRNDEDGSFDRGGVAGAVRAVVVEEEGKTFFANARKLQEIVADREREERCIDEFVQHLTSWNELKNNSDGQYP |  |  | 96.7 | 2.1 | Active | 1.1
